Earlier results on one substance are cited in publication PMC4632993.

This series addresses ubiquitin (Homo sapiens) (UniProt P0CG47).

Chain of MDA-9/Syntenin (O00560 2-298): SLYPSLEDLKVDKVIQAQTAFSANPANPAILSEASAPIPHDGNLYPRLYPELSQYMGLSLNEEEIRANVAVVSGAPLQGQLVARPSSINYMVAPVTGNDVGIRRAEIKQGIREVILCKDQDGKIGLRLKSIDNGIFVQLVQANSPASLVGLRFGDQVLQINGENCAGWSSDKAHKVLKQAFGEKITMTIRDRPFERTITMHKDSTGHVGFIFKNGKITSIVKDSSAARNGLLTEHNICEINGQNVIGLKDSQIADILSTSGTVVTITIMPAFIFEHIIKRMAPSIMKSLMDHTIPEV

Turning to MDA-9/Syntenin (from UniProt O00560), the Kd is 27.3 µM.

For orientation: Kd means the constant that tells how readily two partners part at equilibrium.
